# Reference: PMC6917434 (Journal of thrombosis and haemostasis : JTH, 2019)
# Like-named read-outs stand apart in the source and are kept apart here.
# B1: recombinant factor XIII B subunit from Zedira (rFXIII-B2) (natural protein, human, UniProt P05160 21-661, looked up)
# chain: EEKPCGFPHVENGRIAQYYYTFKSFYFPMSIDKKLSFFCLAGYTTESGRQEEQTTCTTEGWSPEPRCFKKCTKPDLSNGYISDVKLLYKIQENMRYGCASGYKTTGGKDEEVVQCLSDGWSSQPTCRKEHETCLAPELYNGNYSTTQKTFKVKDKVQYECATGYYTAGGKKTEEVECLTYGWSLTPKCTKLKCSSLRLIENGYFHPVKQTYEEGDVVQFFCHENYYLSGSDLIQCYNFGWYPESPVCEGRRNRCPPPPLPINSKIQTHSTTYRHGEIVHIECELNFEIHGSAEIRCEDGKWTEPPKCIEGQEKVACEEPPFIENGAANLHSKIYYNGDKVTYACKSGYLLHGSNEITCNRGKWTLPPECVENNENCKHPPVVMNGAVADGILASYATGSSVEYRCNEYYLLRGSKISRCEQGKWSSPPVCLEPCTVNVDYMNRNNIEMKWKYEGKVLHGDLIDFVCKQGYDLSPLTPLSELSVQCNRGEVKYPLCTRKESKGMCTSPPLIKHGVIISSTVDTYENGSSVEYRCFDHHFLEGSREAYCLDGMWTTPPLCLEPCTLSFTEMEKNNLLLKWDFDNRPHILHGEYIEFICRGDTYPAELYITGSILRMQCDRGQLKYPRCIPRQSTLSYQEPLRT
# modifications: glycosylation pattern different from the plasma-purified B subunit (sites not given)
# B2: Factor XIII B subunit of plasma-purified factor XIII (natural protein, human, UniProt P05160 21-661, looked up)
# chain: EEKPCGFPHVENGRIAQYYYTFKSFYFPMSIDKKLSFFCLAGYTTESGRQEEQTTCTTEGWSPEPRCFKKCTKPDLSNGYISDVKLLYKIQENMRYGCASGYKTTGGKDEEVVQCLSDGWSSQPTCRKEHETCLAPELYNGNYSTTQKTFKVKDKVQYECATGYYTAGGKKTEEVECLTYGWSLTPKCTKLKCSSLRLIENGYFHPVKQTYEEGDVVQFFCHENYYLSGSDLIQCYNFGWYPESPVCEGRRNRCPPPPLPINSKIQTHSTTYRHGEIVHIECELNFEIHGSAEIRCEDGKWTEPPKCIEGQEKVACEEPPFIENGAANLHSKIYYNGDKVTYACKSGYLLHGSNEITCNRGKWTLPPECVENNENCKHPPVVMNGAVADGILASYATGSSVEYRCNEYYLLRGSKISRCEQGKWSSPPVCLEPCTVNVDYMNRNNIEMKWKYEGKVLHGDLIDFVCKQGYDLSPLTPLSELSVQCNRGEVKYPLCTRKESKGMCTSPPLIKHGVIISSTVDTYENGSSVEYRCFDHHFLEGSREAYCLDGMWTTPPLCLEPCTLSFTEMEKNNLLLKWDFDNRPHILHGEYIEFICRGDTYPAELYITGSILRMQCDRGQLKYPRCIPRQSTLSYQEPLRT
# modifications: glycoprotein (sites not given)
# B3: recombinant inactive factor XIII A subunit from ZymoGenetics (rFXIII-A2), P00488 1-732 (enzyme)
# chain: MSETSRTAFGGRRAVPPNNSNAAEDDLPTVELQGVVPRGVNLQEFLNVTSVHLFKERWDTNKVDHHTDKYENNKLIVRRGQSFYVQIDFSRPYDPRRDLFRVEYVIGRYPQENKGTYIPVPIVSELQSGKWGAKIVMREDRSVRLSIQSSPKCIVGKFRMYVAVWTPYGVLRTSRNPETDTYILFNPWCEDDAVYLDNEKEREEYVLNDIGVIFYGEVNDIKTRSWSYGQFEDGILDTCLYVMDRAQMDLSGRGNPIKVSRVGSAMVNAKDDEGVLVGSWDNIYAYGVPPSAWTGSVDILLEYRSSENPVRYGQCWVFAGVFNTFLRCLGIPARIVTNYFSAHDNDANLQMDIFLEEDGNVNSKLTKDSVWNYHCWNEAWMTRPDLPVGFGGWQAVDSTPQENSDGMYRCGPASVQAIKHGHVCFQFDAPFVFAEVNSDLIYITAKKDGTHVVENVDATHIGKLIVTKQIGGDGMMDITDTYKFQEGQEEERLALETALMYGAKKPLNTEGVMKSRSNVDMDFEVENAVLGKDFKLSITFRNNSHNRYTITAYLSANITFYTGVPKAEFKKETFDVTLEPLSFKKEAVLIQAGEYMGQLLEQASLHFFVTARINETRDVLAKQKSTVLTIPEIIIKVRGTQVVGSDMTVTVEFTNPLKETLRNVWVHLDGPGVTRPMKKMFREIRPNSTVQWEEVCRPWVSGHRKLIASMSSDSLRHVYGELDVQIQRRPSM
# Tests used:
# Assay in all cases: single-molecule atomic force microscopy
# [1] = target: Factor XIII A subunit of plasma-purified inactive factor XIII (pFXIII-A2B2) (human) (UniProt P00488)
# [2] = target: the molecule itself
# [3] = target: the molecule itself; remark: listed apart in the source
# [4] = target: T1, recombinant inactive factor XIII A subunit from ZymoGenetics (rFXIII-A2) (human), P00488; details: remark: other sources report otherwise
# T1 chain: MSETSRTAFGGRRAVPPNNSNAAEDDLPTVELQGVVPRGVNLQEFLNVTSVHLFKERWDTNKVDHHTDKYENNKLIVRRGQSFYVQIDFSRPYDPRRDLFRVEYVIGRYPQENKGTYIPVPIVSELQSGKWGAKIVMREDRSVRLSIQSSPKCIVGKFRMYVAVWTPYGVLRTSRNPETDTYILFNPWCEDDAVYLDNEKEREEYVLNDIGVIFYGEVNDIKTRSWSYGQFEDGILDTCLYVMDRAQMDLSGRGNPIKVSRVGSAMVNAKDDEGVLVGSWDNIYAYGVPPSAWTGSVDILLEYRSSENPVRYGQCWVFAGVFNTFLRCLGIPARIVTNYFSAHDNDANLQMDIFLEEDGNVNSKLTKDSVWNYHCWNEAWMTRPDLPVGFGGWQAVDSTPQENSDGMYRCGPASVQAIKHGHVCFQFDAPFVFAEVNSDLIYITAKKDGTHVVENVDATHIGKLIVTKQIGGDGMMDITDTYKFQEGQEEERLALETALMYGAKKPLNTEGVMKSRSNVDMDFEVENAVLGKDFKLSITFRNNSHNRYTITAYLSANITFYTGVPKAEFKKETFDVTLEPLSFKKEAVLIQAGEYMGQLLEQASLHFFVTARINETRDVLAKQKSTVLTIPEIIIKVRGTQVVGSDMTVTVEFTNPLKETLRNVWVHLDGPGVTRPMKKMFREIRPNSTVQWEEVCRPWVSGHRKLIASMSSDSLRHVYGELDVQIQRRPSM
# [5] = target: T1, recombinant inactive factor XIII A …; details: remark: other sources report otherwise
molecule,measurement,setting,value
Factor XIII A subunit of plasma-purified inactive factor XIII (pFXIII-A2B2) (from UniProt P00488 39-732) (enzyme),stoichiometry N,[1],2
B1,stoichiometry N,[2],2
B2,stoichiometry N,[3],2
B3,stoichiometry N,[4],2
same,stoichiometry N,[5],2
